Common to all, as to experiment: SPR
In general terms: Surface plasmon resonance follows binding to a sensor surface in real time, without labels.

Assay [1] concerns the target CH2-4.10 N299A aglycosylated anti-mesothelin human IgG1 antibody (human).
Assay [2] addresses CH2-4.15 N297A aglycosylated anti-mesothelin human IgG1 antibody (human).
For assay [3], the target named is CH2-4.16 N298A aglycosylated anti-mesothelin human IgG1 antibody (human).
In assay [4] the target is CH2-4.16 N298A-tubulysin (MSLN, huG1).
Assay [5] addresses CH2-4.19 N301A aglycosylated anti-mesothelin human IgG1 antibody (human).
Assay [6] has as its target CH2-4.20 N300A aglycosylated anti-mesothelin human IgG1 antibody (human).
Assay [7] deals with N297A aglycosylated anti-mesothelin human IgG1 antibody (human).

Consider “hCD64 (from UniProt P12314 16-374) (receptor)”, for which the fold weaker binding than the corresponding glycosylated species in assay [1], in assay [2], in assay [3], in assay [5], in assay [6] and in assay [7] was 100 fold each time. For the same substance, the dissociation constant (Kd) in assay [4] is 172 nM.

What is called Kd is a measure of binding affinity in units of concentration. The low end stands for higher affinity, the high end for lower affinity.

For the origin of these results see PMC9026278.
